Two molecules from patent US20060141582A1 (ZymoGenetics, published 2006) can be followed below.

Assay [1] deals with CRF2-4/IL-22RA heterodimeric receptor on BaF3 cells (BaF3/CRF2-4/IL-22RA cells) (human) (UniProt Q08334). Nature of the assay: cell-based or functional assay.
The target in assay [2] is T1, human IL-22RA on transfected cells (BaF3/IL-22RA/IL-20RB, BaF3/IL-22RA/CRF2-4, 293 or P815 cells) (human, UniProt Q8N6P7 16-574).
T1 construct: also called huIL-22RA; hIL-22RA
T1 sequence: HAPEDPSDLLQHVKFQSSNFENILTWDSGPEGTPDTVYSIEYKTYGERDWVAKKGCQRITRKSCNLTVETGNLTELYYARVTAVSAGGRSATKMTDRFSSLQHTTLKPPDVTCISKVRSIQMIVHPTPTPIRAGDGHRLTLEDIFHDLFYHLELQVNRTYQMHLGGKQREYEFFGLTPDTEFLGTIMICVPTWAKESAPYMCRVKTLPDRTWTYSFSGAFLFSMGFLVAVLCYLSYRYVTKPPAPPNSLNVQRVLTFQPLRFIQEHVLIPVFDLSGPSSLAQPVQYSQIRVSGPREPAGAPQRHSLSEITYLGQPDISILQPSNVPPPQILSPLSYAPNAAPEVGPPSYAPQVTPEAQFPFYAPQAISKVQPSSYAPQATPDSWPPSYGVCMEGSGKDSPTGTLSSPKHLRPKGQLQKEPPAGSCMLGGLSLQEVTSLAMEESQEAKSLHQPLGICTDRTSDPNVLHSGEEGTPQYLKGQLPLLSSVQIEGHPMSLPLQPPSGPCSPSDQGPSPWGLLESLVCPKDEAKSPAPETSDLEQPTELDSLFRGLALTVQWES
The assay is described as follows: flow cytometry on P815 cells transfected with hIL-22RA, 5 ug/ml huIL-22-biotin; used to select the clone. As for the experimental part: WT P815 Cells (ATCC No. TIB-64) were transfected with a plasmid vector containing the hIL-22RA cDNA sequence (e.g., SEQ ID NO:1) and a selectable puromycin-resistance marker, using Fugene Reagent according to the manufacturer's protocol (Roche, Indianapolis, Ind.). Cells were placed under Puromycin selection 48 hours following transfection. Puromycin-resistant transfectants were cloned by limiting dilution, and screened for their level of hIL-22RA cell surface expression by flow cytometry, using biotinylated human IL-22 (huIL-22-biotin). Briefly, cells were incubated with 5 ug/ml huIL-22-biotin for 30 minutes on ice and then washed. Binding of huIL-22-biotin to the cells was then detected using PE-labeled streptavidin at 1:500. Cells were analyzed on a Facscan flow cytometer using Cellquest software. (Becton Dickinson, San Jose, Calif.).
For orientation: A flow cytometer gives signals particle by particle.

Chain of CRF2-4/IL-22RA heterodimeric receptor on BaF3 cells (BaF3/CRF2-4/IL-22RA cells) (human) (Q08334 20-325 limits assumed, one chain of several): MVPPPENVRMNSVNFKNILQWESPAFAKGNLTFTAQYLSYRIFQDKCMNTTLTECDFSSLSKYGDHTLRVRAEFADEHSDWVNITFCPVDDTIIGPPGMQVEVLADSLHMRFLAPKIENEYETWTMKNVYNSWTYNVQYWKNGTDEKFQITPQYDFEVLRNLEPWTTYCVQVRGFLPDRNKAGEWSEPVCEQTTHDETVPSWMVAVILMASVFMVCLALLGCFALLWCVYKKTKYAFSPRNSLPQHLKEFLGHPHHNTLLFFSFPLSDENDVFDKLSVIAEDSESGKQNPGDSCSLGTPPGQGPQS

In assay [1], “IL-22-CEE (IL-22 polypeptide containing C-terminal GluGlu (EE) tag), purified from BHK 570 cells (ligand)” came in with a proliferation of BaF3/CRF2-4/IL-22RA cells (Alamar Blue), fold induction at 0.06 ng/ml IL-22-CEE (fold induction) of 2 and a proliferation of BaF3/CRF2-4/IL-22RA cells (Alamar Blue), fold over background at 50 ng/ml IL-22-CEE (fold over background) of 15.

B1: biotinylated human IL-22 (ligand)
chain: APISSHCRLDKSNFQQPYITNRTFMLAKEASLADNNTDVRLIGEKLFHGVSMSERCYLMKQVLNFTLEEVLFPQSDRFQPYMQEVVPFLARLSNRLSTCHIEGDDLHIQRNVQKLKDTVKKLGESGEIKAIGELDLLFMSLRNACI
modifications: biotinylated (sites not given)
notes: also called huIL-22-biotin
Turning to B1, the binding result in assay [2] was “binds”.
